To fix the notation:
B1: unphosphorylated PPKID3 (designed binder)
chain: GASPHTSSGDDAPVRRLSFFDILLDLYLDAPC(acetamidofluorescein)
B2: phosphorylated PPKID3 (designed binder)
chain: GASPHTSSGDDAPVRRLSFFDILLDLYLDAPC(acetamidofluorescein)
modifications: also: phosphorylated, site not given here
B3: unphosphorylated PPKID2 (designed binder)
chain: GMSRVTPGGDDAPVRRLSFFYILRDLYLDAPC(acetamidofluorescein)
B4: phosphorylated PPKID1 (designed binder)
chain: GASDMTYWGDDAPVRRLSFFYILLDLYLDAPC(acetamidofluorescein)
modifications: also: phosphorylated, site not given here
B5: phosphorylated PPKID2 (designed binder)
chain: GMSRVTPGGDDAPVRRLSFFYILRDLYLDAPC(acetamidofluorescein)
modifications: also: phosphorylated, site not given here

Results on five molecules are retold here after patent EP1724347A2.

Where no end group is shown, it is not given here.

Chain of GST-KIX (P45481 586-665): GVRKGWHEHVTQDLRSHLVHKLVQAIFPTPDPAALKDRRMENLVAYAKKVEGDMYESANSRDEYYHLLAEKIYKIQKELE

The test concerns the target GST-KIX. Briefly: fluorescence polarization.
In the case of B1, the Kd was determined as 681 nM. This counts as sub-micromolar.

Regarding B2, the Kd was found to be 73 nM.

Turning to B3, the Kd stood at 7600 nM. Against the preceding molecule, the Kd is about 100-fold higher.

B4 had a Kd of 31 nM.

In the case of B5, the dissociation constant Kd was 280 nM.

The term Kd denotes the equilibrium constant for the complex coming apart. A high value points to a looser complex.
